# From patent US6451313
# Where “and” joins values, the source holds several entries; their conditions need not be identical. Equal values may be shown once.
# Legend:
# [1] = molecular target: HIV-1IIIB gp120/gp41 stably expressed on CHO cells (HIV-1 IIIB); test: cell-based or functional assay
# [2] = molecular target: recombinant HIV-1 gp120 from the laboratory-adapted strain HIV-1LAI (HIV-1 LAI) (UniProt P03377); test: modified ELISA, gp120 captured on plate, 50% maximal binding
# [3] = molecular target: recombinant HIV-1 gp120 from the primary isolate HIV-1JR-FL (HIV-1 JR-FL) (UniProt P20871); test: as above
substance,measurement,setting,value
CD4-IgG2 chimeric heterotetramer (Fc fusion),IC50 of syncytium inhibition (CHO cells expressing HIV-1IIIB gp120/gp41 with C8166 cells),[1],9 nM and 1.81 µg/ml
same,"Relative Potency (mass), relative to sCD4, syncytium inhibition",[1],5.1 fold
same,"Relative Potency (molarity), relative to sCD4, syncytium inhibition",[1],22.2 fold
same,EC50,[2],1.25 nM
same,EC50,[3],0.64 nM
